What was measured:
Complement C5 [1] = biological target: T1, Complement C5 (Homo sapiens, UniProt P01031;P01031 P01031:19-673,P01031:678-1676); experiment: filter; MgPBS 37C; conditions: tags: Quidel
Procedure: (§1) Individual cloned DNA was T7 transcribed with α-[³²P]-ATP and the full length [³²P]-2′-NH₂-RNA or 2′-F-RNA was gel-purified (as above). RNA was suspended at approximately 5,000 cpm per 30 μL sample (<10 pM), and aliquots were incubated with various concentrations of C1q, C3 or C5 in MgPBS for 10 minutes at 37° C. Samples were then filtered through nitrocellulose, the filters washed with buffer and dried under an infrared lamp, and counted with addition of scintillation fluid (Ecoscint A, National Diagnostics, Atlanta, Ga.). A background sample of RNA alone was run in parallel. […] Filters were washed and counted.
Sequences were grouped according to homology and function.

Complement C5 [2] = biological target: T1, Complement C5; experiment: inhibition; inhibition of C5a release, zymosan-treated human serum; conditions: tags: Quidel
Procedure: Nucleic Acid Ligand-C5 interaction that inhibits cleavage of C5 would prevent formation of the C5b and MAC assembly. […] For this experiment, dilutions of clone C6 were incubated with whole human serum in GVB⁺⁺ (veronal-buffered saline containing calcium, magnesium and 1% gelatin) plus addition of zymosan for 30 minutes at 37° C. The samples were then quenched with EDTA-buffer and spun, and supernatants were assayed for C5a by radioimrnmunoassay (RIA) (Wagner and Hugli (1984) Anal. Biochem. 136:75).

Complement C1q = Complement C1q (UniProt P02745;P02746;P02747 P02745:23-245,P02746:28-253,P02747:29-245); experiment: filter; MgPBS 37C; text states range 0.29-3.9 nM for best ligands; conditions: tags: Quidel; chain copies: 6
Sequence of Complement C1q (P02745 23-245, chain 1 of 3): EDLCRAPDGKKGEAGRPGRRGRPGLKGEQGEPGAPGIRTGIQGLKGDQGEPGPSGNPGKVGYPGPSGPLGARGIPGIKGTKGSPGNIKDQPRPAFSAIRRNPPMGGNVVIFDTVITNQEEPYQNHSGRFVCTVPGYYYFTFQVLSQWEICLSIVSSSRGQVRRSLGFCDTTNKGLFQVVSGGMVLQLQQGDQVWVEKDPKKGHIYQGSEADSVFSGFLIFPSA
Sequence of Complement C1q (P02746 28-253, chain 2 of 3): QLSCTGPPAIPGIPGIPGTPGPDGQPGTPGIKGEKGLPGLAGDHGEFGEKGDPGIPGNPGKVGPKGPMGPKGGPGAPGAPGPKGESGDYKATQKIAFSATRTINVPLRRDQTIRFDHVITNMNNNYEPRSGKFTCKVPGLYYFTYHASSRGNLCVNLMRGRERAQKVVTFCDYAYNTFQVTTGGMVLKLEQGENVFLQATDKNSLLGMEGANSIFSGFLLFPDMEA
Sequence of Complement C1q (P02747 29-245, chain 3 of 3): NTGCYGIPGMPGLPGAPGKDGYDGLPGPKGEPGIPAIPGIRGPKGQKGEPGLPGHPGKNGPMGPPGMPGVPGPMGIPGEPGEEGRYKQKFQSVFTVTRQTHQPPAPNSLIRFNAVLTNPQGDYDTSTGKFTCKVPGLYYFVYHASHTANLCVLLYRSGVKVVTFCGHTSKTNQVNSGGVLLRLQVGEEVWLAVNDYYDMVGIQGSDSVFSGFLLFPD
Procedure: as §1

B1: C6 (ssRNA)
RNA: GGGAGGACGAUGCGGUCUCAUGCGUCGAGUGUGAGUUUACCUUCGUCAGACGACUCGCCCGA
modifications: 2'-F pyrimidines
- Kd (Complement C5 [1]): 30 nM
- Ki (Complement C5 [2]): ~100 nM

B2: C1q clone 23 (ssRNA)
RNA: GGGAGGACGAUGCGGCACUCACCUUCAUAUUGGCCGCCAUCCCCAGGGUUGAGCCCAGACACAGCAGACGACUCGCCCGA
modifications: 2'-NH2 pyrimidines
- Kd (Complement C1q): 23 nM
